In the supplement of paper PMC9170038:

Test system: MS2 coat protein
Test: apparent KD of MS2 coat protein; designed switch direction (-1 OFF switch, 1 ON switch): -1; higher = weaker reporter binding
Procedure, shortened: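 Each step of the titration lasted 0.8–1.5 h at the lowest concentration and 10–20 min at the highest. The protein, SNAP-549-labelled MS2 coat protein, went from 0.7 or 1.5 nM doubling to 3 µM over RNA switches transcribed on Illumina chips by stalled E. coli RNA polymerase. Normalised cluster fluorescence was curve-fitted, and the per-design median over clusters is given as apparent KD.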

[1] = input ligand: microRNA oligo, concentration not stated
[2] = Eterna round: R95, input ligand: FMN 200 uM
[3] = Eterna round: R95, input ligand: microRNA oligo, concentration not stated
[4] = Eterna round: R95, input ligand: none

Sequence | apparent KD of MS2 coat protein (input ligand: FMN 200 uM) [nM] | apparent KD of MS2 coat protein [1] [nM] | apparent KD of MS2 coat protein (input ligand: none) [nM] | apparent KD of MS2 coat protein [2] [nM] | apparent KD of MS2 coat protein [3] [nM] | apparent KD of MS2 coat protein [4] [nM]
AUCAGCUCGUCAGGAUAUACAUGAGGAUCACCCAUGUGGUCAAUAGCAGCUUCGGCUGCAUACAUGUAGAAGGGACGAGCUGAU [ENG2/7-B2] (Eterna round: R96, puzzle: Exclusion NG 2) | 28.4 | 894 | 101 |  |  | 
AUCAGCUCGUCAGGAUAUACAUGAUAGAUCGAUUAAUUAAUUAAUUUAACAUGAGGAUCACCCAUGUAGAAGGGACGAGCUGAU [ENG2/1-B3] (Eterna round: R96, puzzle: Exclusion NG 2) |  | 39.3 |  |  |  | 
AUCAGCUCGUGAGGAUAUACAUGCGUGCUUCGGCACGUAUGAUAGAUCACAUGAGGAUCACCCAUGUAGAAGGUACGAGCUGAU [ENG2/4-C3] (Eterna round: R96, puzzle: Exclusion NG 2) | 12.6 | 10.7 | 12.6 |  |  | 
AUCAUGUAAGGAUAUCUGACAAGUGACGAAAGUCACAGUUCAGAGAAGGUACAUGAGGAUCACCCAUGUAGAAC [Ex4-3: 42] (puzzle: Exclusion 4) |  |  |  | 82.4 | 51.3 | 71.6
AUCAUGUAAGGAUAUGAAAGUAAACGCGUGAAGACCACGCAUCAGAAGGUACAUGAGGAUCACCCAUGUGUCCG [Soesatle] (Eterna round: R97, puzzle: Exclusion 4) | 60.6 |  | 19.8 |  |  | 
AUCAUGUUAGGAUAUACAAGAAAAGAAAAGAAAGAAAAGAAGUAGAAGGAACAUGAGGAUCACCCAUGUAAGAA [EteRNA is fun!] (Eterna round: R96, puzzle: Exclusion 4) |  | 23 |  |  |  | 
AUCCGGCGUGUAGGAUAUGGUUCCGUUUCGGUUCCAGAAGGACAUGAGGAUCACCCAUGUGCCUGUCGUCGGUCGUCACCGGGC [salish99_ExNG1_r04_218] (Eterna round: R96, puzzle: Exclusion NG 1) | 43.7 | 13.4 | 16.5 |  |  | 
AUCCUACAUGAGGAUCACCCAUGUCAGGAUAUCCAAGAAAUAUGGCCGUAUCGGCCAUGGAGAAGGGAUAUGGG [jl-ex1-4.67 ViennaUCT mod] (Eterna round: R97, puzzle: Exclusion 1) | 26.5 |  | 115 |  |  | 
AUCCUACAUGAGGAUCACCCAUGUCAGGAUAUCCAAGAAAUCUGGCCGUAUCGGCCAGGGAGAAGGGAUAUGGG [jl-ex1-4.64 ViennaUCT mod] (Eterna round: R97, puzzle: Exclusion 1) | 57.7 |  | 74.2 |  |  | 
AUCGUGCAGCAAAGCUGUACGAGUACAUGAGGAUCACCCAUGUAGGAUAUGGUACGCAAAGCGUGCUAGAAGGAUAUGUGUAAG [Mat - Exclusion NG 3 - Mod of JL - D85] (Eterna round: R96, puzzle: Exclusion NG 3) | 65.5 | 39.9 | 61.6 |  |  | 
AUCGUGCAGCUUUGCUGUACGAGUACAUGAGGAUCACCCAUGUAGGAUAUGGUACGCUUUGCGUGCUAGAAGGAUAUGAGAUUU [JL ENG3 1.50] (Eterna round: R96, puzzle: Exclusion NG 3) | 41.7 | 24.3 | 38.6 |  |  | 
AUCUGCACGCUGCGGUCCUACAUGAGGAUCACCCAUGUGGUCUGGUGGCGUGGGUCGCCGGACUUGGCUCGUCUUGG [salish99_S_TOV1_R5_050] (Eterna round: R97, puzzle: Sensor, turn-off variant 1) | 15.4 |  | 15.2 |  |  | 
AUCUUGUCAGGAUAUCGUACAAUAUGGAAAACAUAGAGGUACGAGAAGGGACAUGAGGAUCACCCAUGUAAAAC (Eterna round: R96, puzzle: Exclusion 4) |  | 29 |  |  |  | 
AUGAGACAUGAGGAUCACCCAUGUGAGGAUAUGUAUGGAUGGUAGAAAGAAUGAAAGAACAGAAGGCACGUAGA [JR_Exclu1_Sub061] (puzzle: Exclusion 1) |  |  |  | 143 | 150 | 210
AUGAGAGCAGGAUAUGCAGGUGUGCCGGAAGAAAGAAGAAGACAUGAGGAUCACCCAUGUAGAAGGGCUAGCCC [Bibidi] (Eterna round: R96, puzzle: Exclusion 2) |  | 15.2 |  |  |  | 
AUGAGCAGACGGAGAUCCAACAUGAGGAUCACCCAUGUCUCAAAAGCUUUUUGCUCAUCUUAUCGUACCUUGGUGCA [Mat - Sensor v3 - turn-off var 1 - JL Mod - D14] (puzzle: Sensor v3, turn-off variant 1) |  |  |  | 191 | 13.2 | 197
AUGAGGUUAGGAUAUACAUGAGGAUCACCCAUGUUGGAGGGUAAGGUAGGAGAAGAAAGUAGAAGGAACGGAGC [JR_Exclu3_Sub058] (puzzle: Exclusion 3) |  |  |  | 68.4 | 82.5 | 99.6

Sequence | apparent KD of MS2 coat protein (input ligand: FMN 200 uM) [nM] | apparent KD of MS2 coat protein [1] [nM] | apparent KD of MS2 coat protein (input ligand: none) [nM] | apparent KD of MS2 coat protein [2] [nM] | apparent KD of MS2 coat protein [3] [nM] | apparent KD of MS2 coat protein [4] [nM]
AUGAGUUGAGGAUAUACGUGAGGCGUUAACGCCGCCAGUCAACAUGAGGAUCACCCAUGUAGAAGGCAACCGUC [Eternabot (L1) Solution 6] (Eterna round: R97, puzzle: Exclusion 2) | 22.1 |  | 19.7 |  |  | 
AUGAUGCAGUGAGGAUAUACAUGAGGAUCACCCAUGUUUUUUUUUUUAGAUACACUCCUUUUUUUGUAGAAGGCACUAUGAGUA [Skinny design] (Eterna round: R96, puzzle: Exclusion NG 2) | 121 | 24 | 46.3 |  |  | 
AUGAUGUGAGGAUAUUAGUAGGGUAGCAGAUGACUGCCUAAUAAGAAGGCACAUGAGGAUCACCCAUGUUCACU [Eternabot (L2) Solution 11] (Eterna round: R97, puzzle: Exclusion 4) | 135 |  | 63.5 |  |  | 
AUGCGUGGCUAGGAUAUUGAGGAAUUUAGCCAGCGAGAAGGAGCCACAUGAGGAUCACCCAUGUGGUGAACCUC [jl-ex6-4.60 ViennaUCT mod] (Eterna round: R97, puzzle: Exclusion 6) | 17.7 |  | 18.5 |  |  | 
AUGCUCCGUGUAGGAUAUCGCCGUAUCACUCGGCGAGAAGGACAUGAGGAUCACCCAUGUAUGUUAUUAUCACGUGUGGCGCGC [Design 45] (Eterna round: R96, puzzle: Exclusion NG 1) | 55.2 | 14.8 | 18.3 |  |  | 
AUGGAACAUGAGGAUCACCCAUGUGAGGAUAUGUGAGAAGGAUUUGAGAUGGAGAGGGACAGAAGGCACUAGGA [JR_Exclu1_Sub082] (puzzle: Exclusion 1) |  |  |  |  | 37.6 | 
AUGGGUACUUUCGGAACGACAUGAGGAUCACCCAUGUAUACUGAGGAUAUCCACUACUAAGGACGGGAGAAGGCAGUGUACUGU [Ex NG3 #80] (Eterna round: R96, puzzle: Exclusion NG 3) | 27 | 12.1 | 18.5 |  |  | 
AUGGGUACUUUCGGAGCGACAUGAGGAUCACCCAUGUAUAUUGAGGAUAUCCACUACUAAGGACGGGAGAAGGCAGUGUACUGU [Ex NG3 #81] (Eterna round: R96, puzzle: Exclusion NG 3) | 53.3 | 29.2 | 46.4 |  |  | 
AUGGGUCCUCACGGAGCUACAUGAGGAUCACCCAUGUGUAUUGAGGAUAUCCACUGCCGACGGCUGGAGAAGGCAGUGUACUGU [Ex NG3 #93] (Eterna round: R96, puzzle: Exclusion NG 3) | 97.8 | 61.5 | 109 |  |  | 
AUGGGUCCUCUCGGAGCGACAUGAGGAUCACCCAUGUGUGUUGAGGAUAUCCACUGCUCAGGACGGGAGAAGGCAGUGUACUGU [Ex NG3 #86] (Eterna round: R96, puzzle: Exclusion NG 3) | 55.9 | 32.5 | 48.8 |  |  | 
AUGGGUCCUUUCGGAGCGACAUGAGGAUCACCCAUGUGUGUUGAGGAUAUCCACUGCUAAGGACGGGAGAAGGCAGUGUACUGU [Ex NG3 #84] (Eterna round: R96, puzzle: Exclusion NG 3) | 36.2 | 26.7 | 49.4 |  |  | 
AUGGUACAUGAGGAUCACCCAUGUUAGGAUAUCGCGUGAUCUAAAACUAAGAGACACACGAGAAGGGACGACAU (puzzle: Exclusion 1) |  |  |  |  | 128 | 
AUGGUAUUAGGAUAUACAUGAGGAUCACCCAUGUGGCAUCAUGCGGUGCCGACCUACUGUAGAAGGAGUGUAAA [Eternabot (L1) Solution 64] (Eterna round: R97, puzzle: Exclusion 3) | 51.3 |  | 59 |  |  | 
AUGUACCGGUGAGGAUAUUUUUAAUAGAACUUUAUGAUAUACAUGAGGAUCACCCAUGUUACUUUAAAGAAGGCAUCGGAUUAA [Mat - Exclusion NG 2 - Mod of JL - D85] (Eterna round: R96, puzzle: Exclusion NG 2) |  | 13.8 |  |  |  | 
AUGUGCACGCUGCGAUCCUACAUGAGGAUCACCCAUGUGGUCUGGUGGCGUGGGUCACCGGACUUGGCUCGUCUUGC [salish99_S_TOV1_R5_074] (Eterna round: R97, puzzle: Sensor, turn-off variant 1) | 28.1 |  | 27.6 |  |  | 
AUGUGCACGCUGCGGUCCUACAUGAGGAUCACCCAUGUGGUCUGGUGGCGUGGGUCACCGGACUUGGCUCGUCUUGG [salish99_S_TOV1_R5_057] (Eterna round: R97, puzzle: Sensor, turn-off variant 1) | 22.4 |  | 24.3 |  |  | 
